Our source for the HI assay: minimal inhibitory concentration of RpSP-D multimers and HI assay: minimal inhibitory concentration of RpSP-D trimers values is PMC3173486.

The target of the assay is HA of all the influenza A/H3N2 viruses tested with RpSP-D multimers and trimers.

B1: RpSP-D multimers (natural protein)
chain: AEMKTYSQRAVANACALVMCSPMENGLPGRDGRDGREGPRGEKGDPGLPGAVGRAGMPGLAGPVGPKGDNGSTGEPGAKGDIGPCGPPGPPGIPGPAGKEGPSGQQGNIGPPGTPGPKGETGPKGEVGALGMQGSTGARGPAGLKGERGAPGERGAPGSAGAAGPAGATGPQGPSGARGPPGLKGDRGPPGERGAKGESGLPGITALRQQVETLQGQVQRLQKAFSQYKKVELFPNGRGVGEKIFKTGGFEKTFQDAQQVCTQAGGQMASPRSETENEALSQLVTAQNKAAFLSMTDIKTEGNFTYPTGEPLVYANWAPGEPNNNGGSSGAENCVEIFPNGKWNDKACGELRLVICEF
As to B1, the HI assay: minimal inhibitory concentration of RpSP-D multimers worked out at 8.7 ng/100 µl.

B2: RpSP-D trimers (natural protein)
chain: B1 chain
Regarding B2, the HI assay: minimal inhibitory concentration of RpSP-D trimers was determined as 124 ng/100 µl.
